These results are taken from publication PMC9896144, “A “grappling hook” interaction connects self-assembly and chaperone activity of Nucleophosmin 1” (PNAS Nexus, 2023).

B1: NPM1_(188), the NTD and the acidic regions of the IDR of NPM1 (domain or fragment, human, UniProt P06748 1-188, looked up)
chain: MEDSMDMDMSPLRPQNYLFGCELKADKDYHFKVDNDENEHQLSLRTVSLGAGAKDELHIVEAEAMNYEGSPIKVTLATLKMSVQPTVSLGGFEITPPVVLRLKCGSGPVHISGQHLVAVEEDAESEDEEEEDVKLLSISGKRSAPGGGSKVPQKKVKLAADEDDDDDDEEDDDEDDDDDDFDDEEAEE
notes: Nucleophosmin 1, human, NTD and acidic tracts A1-3, C-terminally truncated at residue 188; exact construct and tags are in the supplementary methods; Mostly pentameric; also called NPM188; source: produced by the authors
B2: rpL5_(21-37), residues 21 to 37 of ribosomal protein L5 (peptide, UniProt P46777 21-37, looked up)
peptide: RRRREGKTDYYARKRLV
notes: ribosomal protein L5 (rpL5), residues 21 to 37, with two basic motifs; printed mass 2.2 kDa; also called rpL5 peptide; rpL5_(12-37)
B3: NPM1_(120), the N-terminal pentamerization domain (NTD) of NPM1 (domain or fragment, human, UniProt P06748 1-120, looked up)
chain: MEDSMDMDMSPLRPQNYLFGCELKADKDYHFKVDNDENEHQLSLRTVSLGAGAKDELHIVEAEAMNYEGSPIKVTLATLKMSVQPTVSLGGFEITPPVVLRLKCGSGPVHISGQHLVAVE
notes: Nucleophosmin 1, human, NTD with the A1 tract, residues 1 to 120; exact construct and tags are in the supplementary methods; also called NPM120; isolated NTD; source: produced by the authors
B4: NPM1AML, NPM1 variant with an AML mutation at the C-terminus (natural protein, human, UniProt P06748 1-294, looked up)
chain: MEDSMDMDMSPLRPQNYLFGCELKADKDYHFKVDNDENEHQLSLRTVSLGAGAKDELHIVEAEAMNYEGSPIKVTLATLKMSVQPTVSLGGFEITPPVVLRLKCGSGPVHISGQHLVAVEEDAESEDEEEEDVKLLSISGKRSAPGGGSKVPQKKVKLAADEDDDDDDEEDDDEDDDDDDFDDEEAEEKAPVKKSIRDTPAKNAQKSNQNGKDSKPSSTPRSKGQESFKKQEKTPKTPKGPSSVEDIKAKMQASIEKGGSLPKVEAKFINYVKNCFRMTDQEAIQDLCLAVEEVSLRK
notes: Compared directly with FL NPM1, so most likely the whole protein with the changed C-terminus; also called AML variant; source: purified by the authors

Values joined by “and” are separate entries in the source; they are usually repeats but may differ in a detail not shown here. Equal entries are not always repeated.

In data set [1] the target is NPM1_(ΔIDR), NPM1 variant in which NTD and CTD are linked without the IDR (human) (UniProt P06748). In words: native MS; each NPM1 variant alone; nESI with collision-induced dissociation, collision voltages 25 to 75 V.
Data set [2] concerns the molecule itself. Described as above.
In data set [3] the target is T1, Full-length (FL) Nucleophosmin 1 (human, UniProt P06748 1-294).
T1 construct: Forms pentamers that assemble into large oligomers without defined stoichiometry; PDB 8AS5 models only the N-terminal core; also called NPM1; FL NPM1; source: produced by the authors
Put plainly: native MS; NPM1_120 or FL NPM1 in the presence of the rpL5_21-37 peptide; collisional activation. The settings on record: both partners purified.

The target in data set [4] is B3. The data set is described as above. The settings on record: both partners purified.
Data set [5] deals with the molecule itself. The description is as above.

With “NPM1_(ΔIDR), NPM1 variant in which NTD and CTD are linked without the IDR (from UniProt P06748 1-120; P06748 240-294)”, the stoichiometry N (usually the number of molecules, sites or subunits per partner or assembly) in data set [1] is 5 and 10.

Regarding B1, the “stoichiometry N” value in data set [2] was 5 and 10.

For the molecule B2, the binding result in data set [3] and in data set [4] was “binds” throughout.

Turning to B3, the “stoichiometry N” value in data set [5] was not below 25 subunits; in data set [2], 10.

In the case of B4, the binding result in data set [2] is on record as “binds”.
